# Experimental data: paper PMC7497641, “Neurotropic activity and safety of methylene-cycloalkylacetate (MCA) derivative 3-(3-allyl-2-methylenecyclohexyl) propanoic acid” (ACS Chemical Neuroscience, 2020)
# B1: NGF: Tissue culture grade mouse β-nerve growth factor, neurotrophin used as positive control (protein, UniProt P01139 122-241, looked up)
# Beta-nerve growth factor: SSTHPVFHMGEFSVCDSVSVWVGDKTTATDIKGKEVTVLAEVNINNSVFRQYFFETKCRASNPVESGCRGIDSKHWNSYCTTTHTFVKALTTDEKQAAWRFIRIDTACVCVLSRKATRRG
# modifications: Beta-nerve growth factor
# notes: Tissue culture grade mouse β-nerve growth factor, neurotrophin used as positive control
# Key:
# [1] = target: T1, Nicotinic acetylcholine Receptor alpha-4 beta-2 (nAChR(a4/b2)) (Homo sapiens, UniProt P17787+P43681); assay: cell-based; conditions: Blocker; Ion channel; read-out: RC50 (the source's name)
# T1 construct: host or cells: unnamed DiscoverX cell line
# [2] = target: Gamma-aminobutyric acid Receptor A (GABAA) (Homo sapiens, UniProt P14867+P18507+P47870); assay: SAFETYscan Ion channel assay; assay type: cell-based; conditions: Blocker, read-out: RC50 (the source's name)
# [3] = test system: adult rat spinal cord primary cultures; assay: Spinal cord neurons neurite outgrowth assay; assay type: cell-based; conditions: NGF 50 ng/mL
# Description: To study the effect of HU-MCA-13 on adult rat spinal cord primary cultures in vitro, we developed a purification procedure that yields enriched different types of spinal cord neuronal cultures. This neurotropic assay was performed using vehicle 1% DMSO in DMEM as control and 10 μM HU-MCA-13. The results in Figure 1 bottom row and Figure 3D clearly indicate that in control there was very poor spontaneous neurite outgrowth of a total length of about 180 μm and NGF induced neurite outgrowth to a total length of about 800 μm. Similarly, HU-MCA-13 induced a neurite outgrowth of 600 μm. Figure 2B indicates cytoskeletal-tubulin protein expression in the cultured neurons. These findings further extend the neurotropic effect of HU-MCA-13 to spinal cord neurons, in addition to DRGs and PC12 cells.
# Spinal cords were isolated from adult rats (4–6 months old), and the meninges were removed from the spinal cord. The spinal cord was then cut into small pieces and collected in cold Hibernate A (Brainbits, Springfield, IL, USA), glutamine (0.5 mM), and B27 (Invitrogen, Carlsbad, CA). […] Neurite outgrowth was measured and presented as mean length of a neurite (microns). To measure neuronal survival, 450 cells were counted in 10 randomly chosen microscope fields of a known area in each of the three dishes per condition using a 20× objective and phase-contrast optics. […]
# [4] = test system: PC12 dopaminergic cell cultures; assay: PC12 neurotropic (neurite outgrowth) assay; assay type: cell-based, rat; conditions: for neurite outgrowth, Df value: NGF alone 50 ng/mL
# [5] = test system: PGE2 production in PC12 cells; assay: PGE2 production measured by ELISA; conditions: 50 ng/mL NGF; 24 h
# [6] = test system: dorsal root ganglion (DRG) sensory neurons; assay: DRG neurite outgrowth assay; assay type: cell-based, mice; conditions: NGF 50 ng/mL, DRG explants, 5 days
# Text: In the second step, we study the effect of HU-MCA-13 on ex-vivo sensory neuronal cultures obtained from dissociated dorsal root ganglia (DRG), a model in which the neurons tend to extend neurites in culture at a high rate, and all neurite outgrowths are axons, as confirmed by immune staining for cytoskeletal-specific proteins.[27] […] By contrast, NGF induced a strong, 3.5-fold increase in neurite outgrowth to a value of 700 μm (Figure 1 and Figure 3B) and a ratio of 8.5 between the area covered by neurites and that covered by the DRG ganglia (Figure 3C). Similarly, HU-MCA-13 induced a 2.5 fold increase in neurite outgrowth to a value of about 500 μm (Figure 1 and Figure 3B) and a ratio of 5.4 between the area covered by neurites and that covered by the DRG ganglia (Figure 3C). […] These experiments extend the neurotropic effect of MCA-13 observed with PC12 dopaminergic neuronal cultures to DRG sensory neurons.
# To perform these experiments, 10 DRGs were excised under sterile conditions and transferred to Dulbecco’s Modified Eagle Medium (DMEM) containing 0.25% Type IV collagenase in at 37 °C for 45 min, followed by a 20 min incubation with 0.025% trypsin in DMEM, to digest the associated connective tissue surrounding the neurons. After plating the ganglia onto collagen (50 μg/mL)/laminin mixture (5 μg/mL)-coated tissue culture wells for 24 h, DRG neurons were cultured for additional 1–7 days in fresh Neurobasal A/B27 medium[27] containing either 50 ng/mL NGF (positive control), medium containing 1% DMSO (negative control) or 5 μM MCA-13. The living cultures were photographed and thereafter, the ganglia were immunostained for β tubulin III and again photographed using a fluorescent microscope. A researcher blinded to the experimental conditions performed image analysis, and the neurite outgrowth length (in micrometers) was measured.[50]
# T1 sequence (P43681 29-627 limits assumed): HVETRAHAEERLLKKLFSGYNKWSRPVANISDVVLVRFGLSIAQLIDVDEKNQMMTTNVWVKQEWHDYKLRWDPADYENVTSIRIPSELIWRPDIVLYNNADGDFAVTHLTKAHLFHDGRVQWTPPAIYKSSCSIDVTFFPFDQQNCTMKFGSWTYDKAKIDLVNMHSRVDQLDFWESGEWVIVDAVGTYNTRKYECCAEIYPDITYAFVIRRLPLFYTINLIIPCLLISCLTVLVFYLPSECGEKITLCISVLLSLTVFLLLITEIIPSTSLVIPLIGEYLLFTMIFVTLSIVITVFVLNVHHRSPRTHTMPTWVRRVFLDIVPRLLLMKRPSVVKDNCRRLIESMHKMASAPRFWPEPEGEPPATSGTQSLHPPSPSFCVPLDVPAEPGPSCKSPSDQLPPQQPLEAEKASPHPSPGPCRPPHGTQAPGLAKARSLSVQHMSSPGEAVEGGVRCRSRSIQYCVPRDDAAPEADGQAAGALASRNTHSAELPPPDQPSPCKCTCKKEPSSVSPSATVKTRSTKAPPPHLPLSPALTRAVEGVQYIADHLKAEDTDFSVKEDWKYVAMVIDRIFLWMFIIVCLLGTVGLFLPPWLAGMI
# T1 sequence (P17787 26-502): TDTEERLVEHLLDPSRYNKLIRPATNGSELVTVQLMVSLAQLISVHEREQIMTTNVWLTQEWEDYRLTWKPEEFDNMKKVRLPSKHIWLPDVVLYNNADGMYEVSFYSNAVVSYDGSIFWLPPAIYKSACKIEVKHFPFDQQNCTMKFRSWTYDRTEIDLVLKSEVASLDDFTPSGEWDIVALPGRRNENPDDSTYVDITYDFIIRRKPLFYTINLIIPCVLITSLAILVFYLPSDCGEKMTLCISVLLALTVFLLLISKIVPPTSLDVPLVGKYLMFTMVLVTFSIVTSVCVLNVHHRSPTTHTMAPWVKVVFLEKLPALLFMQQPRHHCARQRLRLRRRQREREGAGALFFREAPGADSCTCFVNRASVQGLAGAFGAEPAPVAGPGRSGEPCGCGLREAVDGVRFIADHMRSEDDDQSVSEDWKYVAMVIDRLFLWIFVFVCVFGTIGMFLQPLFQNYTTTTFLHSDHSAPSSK
# Chain of Gamma-aminobutyric acid Receptor A (GABAA) (P14867 28-456): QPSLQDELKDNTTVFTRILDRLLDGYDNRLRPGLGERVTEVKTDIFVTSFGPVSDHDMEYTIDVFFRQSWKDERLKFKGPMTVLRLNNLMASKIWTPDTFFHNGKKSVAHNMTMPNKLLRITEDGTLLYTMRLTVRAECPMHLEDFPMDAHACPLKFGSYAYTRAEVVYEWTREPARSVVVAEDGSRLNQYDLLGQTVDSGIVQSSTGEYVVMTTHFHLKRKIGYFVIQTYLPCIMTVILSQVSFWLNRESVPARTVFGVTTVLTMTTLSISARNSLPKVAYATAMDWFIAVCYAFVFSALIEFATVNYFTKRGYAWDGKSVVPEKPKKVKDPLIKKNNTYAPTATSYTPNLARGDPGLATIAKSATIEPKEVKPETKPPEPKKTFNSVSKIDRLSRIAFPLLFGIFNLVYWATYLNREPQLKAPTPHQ
# Chain of Gamma-aminobutyric acid Receptor A (GABAA) (P47870 26-512): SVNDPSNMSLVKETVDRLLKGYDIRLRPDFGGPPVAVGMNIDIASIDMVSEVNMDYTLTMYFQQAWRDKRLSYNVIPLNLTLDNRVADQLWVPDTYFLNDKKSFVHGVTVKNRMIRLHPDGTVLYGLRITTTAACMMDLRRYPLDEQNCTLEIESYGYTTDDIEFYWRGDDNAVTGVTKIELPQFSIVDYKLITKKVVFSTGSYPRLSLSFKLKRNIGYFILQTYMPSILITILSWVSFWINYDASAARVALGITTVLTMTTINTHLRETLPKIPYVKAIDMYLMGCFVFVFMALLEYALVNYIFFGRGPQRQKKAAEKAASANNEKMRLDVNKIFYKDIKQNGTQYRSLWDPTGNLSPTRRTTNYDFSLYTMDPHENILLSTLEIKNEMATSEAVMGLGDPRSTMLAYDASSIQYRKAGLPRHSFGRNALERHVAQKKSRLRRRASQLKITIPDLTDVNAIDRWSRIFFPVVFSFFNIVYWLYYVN
# Chain of Gamma-aminobutyric acid Receptor A (GABAA) (P18507 40-475): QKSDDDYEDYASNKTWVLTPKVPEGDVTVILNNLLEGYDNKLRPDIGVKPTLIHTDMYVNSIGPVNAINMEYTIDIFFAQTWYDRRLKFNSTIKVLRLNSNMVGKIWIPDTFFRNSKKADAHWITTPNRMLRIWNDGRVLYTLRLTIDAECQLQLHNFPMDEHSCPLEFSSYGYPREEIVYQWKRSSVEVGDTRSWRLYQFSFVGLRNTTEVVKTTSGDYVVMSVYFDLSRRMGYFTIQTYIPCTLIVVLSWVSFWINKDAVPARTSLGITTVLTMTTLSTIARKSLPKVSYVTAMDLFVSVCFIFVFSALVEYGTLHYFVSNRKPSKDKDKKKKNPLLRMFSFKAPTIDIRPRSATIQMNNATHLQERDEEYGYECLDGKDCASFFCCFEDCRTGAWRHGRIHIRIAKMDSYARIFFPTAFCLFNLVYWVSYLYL
molecule,measurement,setting,value
Dihydro-AY-erythroidine [reference compound],IC50,[1],0.707 µM
Picrotoxin,IC50,[2],5.92 µM
B1,neurite outgrowth total length,[3],about 800 μm
same,neurotropic effect in the presence of Trk A inhibitor K252a,"[4]; 250 nM K252a, 10 μM HU-MCA-13",abolished
same,"neurite outgrowth, Df value",[4]; 2 days,0.54
same,"neurite outgrowth, Df value",[4]; 7 days,0.4
same,neurite outgrowth,[4]; low dose of NGF 1 ng/mL,10%
same,"neurite outgrowth, Df",[4]; low dose of NGF 1 ng/mL,0.05
same,production of PGE2,[5],significantly increased
same,neurite outgrowth length,[6],700 μm
same,ratio between the area covered by neurites and that covered by the DRG ganglia,[6],8.5
same,fold increase in neurite outgrowth,[6]; versus control medium,3.5 fold
